Laboratory results from patent publication US20220409668A1, “GENETICALLY MODIFIED HUMAN STEM CELL EXPRESSING A MUTANT HUMAN CYTOCHROME P450 2B6 PROTEIN AND USE THEREOF IN THE TREATMENT OF CANCER” (ASSISTANCE PUBLIQUE-HOPITAUX DE PARIS, priority 2019, published 2022).

Experiment: affinity of cytochrome P450 2B6 protein for cyclophosphamide (CPA) and Vmax
Assay type: biochemical, human
Description: In a particularly advantageous embodiment, said variants and fragments have an affinity for CPA that is identical, substantially identical or greater than that of the mutant human cytochrome P450 2B6 protein (CYP2B6*) of SEQ ID No. 1. Methods making it possible to assay said activity and said affinity are well known to a person skilled in the art and are particularly described in Nguyen et al., Mol. Pharmacol., 2008, 73: 1,122-1,133.

B1: CYP2B6*: mutant human cytochrome P450 2B6 protein of SEQ ID No. 1 with 114V, 199M and 477W residues (protein, listed as Homo sapiens)
chain: MELSVLLFLALLTGLLLLLVQRHPNTHDRLPPGPRPLPLLGNLLQMDRRGLLKSFLRFREKYGDVFTVHLGPRPVVMLCGVEAIREALVDKAEAFSGRGKIAMVDPFFRGYGVVFANGNRWKVLRRFSVTTMRDFGMGKRSVEERIQEEAQCLIEELRKSKGALMDPTFLFQSITANIICSIVFGKRFHYQDQEFLKMMNLFYQTFSLISSVFGQLFELFSGFLKYFPGAHRQVYKNLQEINAYIGHSVEKHRETLDPSAPKDLIDTYLLHMEKEKSNAHSEFSHQNLNLNTLSLFFAGTETTSTTLRYGFLLMLKYPHVAERVYREIEQVIGPHRPPELHDRAKMPYTEAVIYEIQRFSDLLPMGVPHIVTQHTSFRGYIIPKDTEVFLILSTALHDPHYFEKPDAFNPDHFLDANGALKKTEAFIPFSLGKRICLGEGIARAELFLFFTTILQNFSMASPVAPEDIDLTPQECGWGKIPPTYQIRFLPR
Fold greater than CYP2B6 WT, substitutions I114V, L199M, V477W
  affinity for CPA relative to the wild-type protein (CYP2B6 WT): more than 8 times
Versus CYP2B6 WT, substrate CPA
  Vmax compared with wild-type protein: same Vmax
